Reference: publication PMC7885266

Target: 3TBP-CTPR6-foldon
Test: co-sedimentation; co-precipitation assay: 10 μM hTNKS2 ARC1–3 mixed with an equal volume of CTPR protein (fixed or increasing concentrations) in 50 mM Tris-HCl, 150 mM NaCl, 0.5 mM TCEP, pH 7.3; 1 h at room temperature, 20 000g 30 min; supernatant and pellet on SDS-PAGE, band densities give the stoichiometry in the pellet

stoichiometry N: 2
B1: Tankyrase-2 Ankyrin Repeat Clusters 1-3 (residues 2-485) (domain or fragment)
chain: SGRRCAGGGAACASAAAEAVEPAARELFEACRNGDVERVKRLVTPEKVNSRDTAGRKSTPLHFAAGFGRKDVVEYLLQNGANVQARDDGGLIPLHNACSFGHAEVVNLLLRHGADPNARDNWNYTPLHEAAIKGKIDVCIVLLQHGAEPTIRNTDGRTALDLADPSAKAVLTGEYKKDELLESARSGNEEKMMALLTPLNVNCHASDGRKSTPLHLAAGYNRVKIVQLLLQHGADVHAKDKGDLVPLHNACSYGHYEVTELLVKHGACVNAMDLWQFTPLHEAASKNRVEVCSLLLSYGADPTLLNCHNKSAIDLAPTPQLKERLAYEFKGHSLLQAAREADVTRIKKHLSLEMVNFKHPQTHETALHCAAASPYPKRKQICELLLRKGANINEKTKEFLTPLHVASEKAHNDVVEVVVKHEAKVNALDNLGQTSLHRAAYCGHLQTCRLLLSYGCDPNIISLQGFTALQMGNENVQQLLQEGI
